# Source: the supplement of paper PMC6757056
# ± gives the standard deviation of the averaged measurements.
# B1: library; a variant is named by its letters at N, in order (parent)
# chain: GCUGUCACCGGUGCUUGGUACGUUAUAUUCAGCCGGUCUGAUGAGUCUNNNNNNAGACGAAACAGC
# Columns and labels:
# (6R,S)-folinic acid [1] = variants of: B1; experiment: normalized RNA/DNA level without ligand (relative to sTRSVctl = 100) (log10 (% of sTRSVctl)); HEK293T overexpressing SLC46A1; higher = less ribozyme self-cleavage, higher mRNA level; details: without (6R,S)-folinic acid; ligand present: no
# In short: (§1)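 HEK293T cells were transfected with library plasmids carrying ribozyme switches linked to an mCherry reporter, or an eGFP reporter in some ligand experiments, at 4 µg per well of a 6-well plate, with any ligand added 1 h beforehand. After 72 h, total RNA was extracted with EDTA, reverse-transcribed, amplified, barcoded and sequenced. RNA level was defined as RNA reads over DNA reads, normalized to a spiked-in non-cleaving sequence or to the top-ranked sequences. That value was multiplied by 100 and converted to log10, the top set was 25 sequences, and only sequences with ≥100 DNA reads were retained.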
# (6R,S)-folinic acid [2] = variants of: B1; experiment: normalized RNA/DNA level with ligand (relative to sTRSVctl = 100) (log10 (% of sTRSVctl)); HEK293T overexpressing SLC46A1; ligand concentration (+) RNA-Seq: 6 mM; higher = less ribozyme self-cleavage, higher mRNA level; details: with (6R,S)-folinic acid; ligand present: yes
# In short: as §1
Variant,"normalized RNA/DNA level without ligand (log10) ((6R,S)-folinic acid [1])","normalized RNA/DNA level with ligand (log10) ((6R,S)-folinic acid [2])"
GCUGUCACCGGUGCUUGGUACGUUAUAUUCAGCCGGUCUGAUGAGUCUAAGGGGAGACGAAACAGC [AAGGGG],1.902 ± 0.011,2.038 ± 0.011
GCUGUCACCGGUGCUUGGUACGUUAUAUUCAGCCGGUCUGAUGAGUCUCAGGGGAGACGAAACAGC [CAGGGG],1.87 ± 0.049,1.996 ± 0.016
GCUGUCACCGGUGCUUGGUACGUUAUAUUCAGCCGGUCUGAUGAGUCUCAGGGAAGACGAAACAGC [CAGGGA],1.962 ± 0.005,2 ± 0.029
GCUGUCACCGGUGCUUGGUACGUUAUAUUCAGCCGGUCUGAUGAGUCUCAGGGCAGACGAAACAGC [CAGGGC],1.994 ± 0.013,2.03 ± 0.046
GCUGUCACCGGUGCUUGGUACGUUAUAUUCAGCCGGUCUGAUGAGUCUCAGGGUAGACGAAACAGC [CAGGGU],1.974 ± 0.014,2 ± 0.031
GCUGUCACCGGUGCUUGGUACGUUAUAUUCAGCCGGUCUGAUGAGUCUCAGUACAGACGAAACAGC [CAGUAC],1.96 ± 0.036,1.97 ± 0.04
GCUGUCACCGGUGCUUGGUACGUUAUAUUCAGCCGGUCUGAUGAGUCUCAGUAGAGACGAAACAGC [CAGUAG],1.93 ± 0.023,1.99 ± 0.052
GCUGUCACCGGUGCUUGGUACGUUAUAUUCAGCCGGUCUGAUGAGUCUUAGCUUAGACGAAACAGC [UAGCUU],2.001 ± 0.012,2.02 ± 0.029
GCUGUCACCGGUGCUUGGUACGUUAUAUUCAGCCGGUCUGAUGAGUCUAAGUACAGACGAAACAGC [AAGUAC],2.02 ± 0.024,2.03 ± 0.039
GCUGUCACCGGUGCUUGGUACGUUAUAUUCAGCCGGUCUGAUGAGUCUUAGGAGAGACGAAACAGC [UAGGAG],1.63 ± 0.024,1.91 ± 0.033
GCUGUCACCGGUGCUUGGUACGUUAUAUUCAGCCGGUCUGAUGAGUCUUAGUACAGACGAAACAGC [UAGUAC],1.972 ± 0.002,2.01 ± 0.048
GCUGUCACCGGUGCUUGGUACGUUAUAUUCAGCCGGUCUGAUGAGUCUGAGGGCAGACGAAACAGC [GAGGGC],1.956 ± 0.011,2.04 ± 0.042
GCUGUCACCGGUGCUUGGUACGUUAUAUUCAGCCGGUCUGAUGAGUCUGAGGGGAGACGAAACAGC [GAGGGG],2.007 ± 0.018,2.04 ± 0.051
GCUGUCACCGGUGCUUGGUACGUUAUAUUCAGCCGGUCUGAUGAGUCUAAGGCGAGACGAAACAGC [AAGGCG],1.9326 ± 0.0006,2.03 ± 0.036
GCUGUCACCGGUGCUUGGUACGUUAUAUUCAGCCGGUCUGAUGAGUCUAAGGCUAGACGAAACAGC [AAGGCU],1.995 ± 0.011,2.019 ± 0.0048
GCUGUCACCGGUGCUUGGUACGUUAUAUUCAGCCGGUCUGAUGAGUCUAAGGCAAGACGAAACAGC [AAGGCA],2.007 ± 0.0039,2.04 ± 0.022
GCUGUCACCGGUGCUUGGUACGUUAUAUUCAGCCGGUCUGAUGAGUCUGAGGUCAGACGAAACAGC [GAGGUC],2.038 ± 0.01,2.04 ± 0.052
GCUGUCACCGGUGCUUGGUACGUUAUAUUCAGCCGGUCUGAUGAGUCUUAGGUCAGACGAAACAGC [UAGGUC],2.05 ± 0.022,2 ± 0.054
GCUGUCACCGGUGCUUGGUACGUUAUAUUCAGCCGGUCUGAUGAGUCUUAGGUUAGACGAAACAGC [UAGGUU],1.961 ± 0.011,2 ± 0.026
GCUGUCACCGGUGCUUGGUACGUUAUAUUCAGCCGGUCUGAUGAGUCUAAGGACAGACGAAACAGC [AAGGAC],1.966 ± 0.0074,1.99 ± 0.037
GCUGUCACCGGUGCUUGGUACGUUAUAUUCAGCCGGUCUGAUGAGUCUAAGGUUAGACGAAACAGC [AAGGUU],1.974 ± 0.015,2.02 ± 0.025
